Assay results taken from article PMC4783868 (Nature, 2015).

Target: T1, PB1 subunit of the influenza C/Johannesburg/1/1966 virus polymerase (FluPolC) (influenza C/Johannesburg/1/1966 virus, UniProt Q9IMP4)
T1 sequence: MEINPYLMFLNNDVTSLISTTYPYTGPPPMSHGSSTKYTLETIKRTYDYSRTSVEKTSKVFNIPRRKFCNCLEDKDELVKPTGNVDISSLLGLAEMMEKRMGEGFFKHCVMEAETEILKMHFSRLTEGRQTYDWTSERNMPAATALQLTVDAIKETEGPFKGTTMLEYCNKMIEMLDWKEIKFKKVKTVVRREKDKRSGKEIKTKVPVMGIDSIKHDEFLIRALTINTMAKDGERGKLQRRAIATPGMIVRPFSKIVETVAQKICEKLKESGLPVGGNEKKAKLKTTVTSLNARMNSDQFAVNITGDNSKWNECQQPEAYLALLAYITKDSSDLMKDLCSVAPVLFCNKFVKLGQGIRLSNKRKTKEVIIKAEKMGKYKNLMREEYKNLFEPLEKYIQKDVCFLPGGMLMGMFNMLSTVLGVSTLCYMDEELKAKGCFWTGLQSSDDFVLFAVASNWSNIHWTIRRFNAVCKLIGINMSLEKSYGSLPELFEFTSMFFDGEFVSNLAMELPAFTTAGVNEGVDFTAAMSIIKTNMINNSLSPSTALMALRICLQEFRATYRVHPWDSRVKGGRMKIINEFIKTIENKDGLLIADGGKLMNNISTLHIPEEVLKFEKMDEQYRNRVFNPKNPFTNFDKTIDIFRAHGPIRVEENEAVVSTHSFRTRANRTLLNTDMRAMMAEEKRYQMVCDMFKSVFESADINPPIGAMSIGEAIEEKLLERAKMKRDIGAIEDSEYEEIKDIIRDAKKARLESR
Test: crystal structure

B1: P3 subunit of the influenza C/Johannesburg/1/1966 virus polymerase (FluPolC) (natural protein)
chain: MSKTFAEIAEAFLEPEAVRIAKEAVEEYGDHERKIIQIGIHFQVCCMFCDEYLSTNGSDRFVLIEGRKRGTAVSLQNELCKSYDLEPLPFLCDIFDREEKQFVEIGITRKADDSYFQSKFGKLGNSCKIFVFSYDGRLDKNCEGPMEEQKLRIFSFLATAADFLRKENMFNEIFLPDNEETIIEMKKGKTFLELRDESVPLPFQTYEQMKDYCEKFKGNPRELASKVSQMQSNIKLPIKHYEQNKFRQIRLPKGPMAPYTHKFLMEEAWMFTKISDPERSRAGEILIDFFKKGNLSAIRPKDKPLQGKYPIHYKNLWNQIKAAIADRTMVINENDHSEFLGGIGRASKKIPEISLTQDVITTEGLKQSENKLPEPRSFPRWFNAEWMWAIKDSDLTGWVPMAEYPPADNELEDYAEHLNKTMEGVLQGTNCAREMGKCILTVGALMTECRLFPGKIKVVPIYARSKERKSMQEGLPVPSEMDCLFGICVKSKSHLNKDDGMYTIITFEFSIREPNLEKHQKYTVFEAGHTTVRMKKGESVIGREVPLYLYCRTTALSKIKNDWLSKARRCFITTMDTVETICLRESAKAEENLVEKTLNEKQMWIGKKNGELIAQPLREALRVQLVQQFYFCIYNDSQLEGFCNEQKKILMALEGDKKNKSSFGFNPEGLLEKIEECLINNPMCLFMAQRLNELVIEASKRGAKFFKTD
binding result: binds
